In the supplement of paper PMC9233669:
This sample holds only a part of the variants without activity.

Legend:
[1] = tested on: biotinyl-Leu-oxazolone; test: self-aminoacylation, catalytic enhancement (BLO) (fold over background); higher = more active; k-Seq, kA / k0A0; sequences stand for … in GGGAAUGGAUCCACAUCUACGAAUUC…UUCACUGCAGACUUGACGAAGCUG
Summary of the method: (§1)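 Working in 50 μL HEPES/NaCl/KCl/MgCl2/CaCl2 buffer with 5% acetonitrile at pH 6.9–7.0, mutagenized RNA pools (0.43 μM; 21-nt variable region) were reacted with 2–1250 μM of each biotinyl-aminoacyl-oxazolone for 90 minutes at room temperature. Streptavidin capture followed, with quantification by triplicate qPCR and Illumina sequencing. Catalytic enhancement is reported as median kA over the uncatalyzed rate, the low-activity peak of a bimodal Gaussian fit to the data.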

[2] = tested on: biotinyl-Val-oxazolone; test: self-aminoacylation, catalytic enhancement (BVO) (fold over background); higher = more active; k-Seq, kA / k0A0; sequences stand for … in GGGAAUGGAUCCACAUCUACGAAUUC…UUCACUGCAGACUUGACGAAGCUG
Summary of the method: as §1

[3] = tested on: biotinyl-Met-oxazolone; test: self-aminoacylation, catalytic enhancement (BMO) (fold over background); higher = more active; k-Seq, kA / k0A0; sequences stand for … in GGGAAUGGAUCCACAUCUACGAAUUC…UUCACUGCAGACUUGACGAAGCUG
Summary of the method: as §1

[4] = tested on: biotinyl-Ile-oxazolone; test: self-aminoacylation, catalytic enhancement (BIO) (fold over background); higher = more active; k-Seq, kA / k0A0; sequences stand for … in GGGAAUGGAUCCACAUCUACGAAUUC…UUCACUGCAGACUUGACGAAGCUG
Summary of the method: as §1

[5] = tested on: biotinyl-Phe-oxazolone; test: self-aminoacylation, catalytic enhancement (BFO) (fold over background); higher = more active; k-Seq, kA / k0A0; sequences stand for … in GGGAAUGGAUCCACAUCUACGAAUUC…UUCACUGCAGACUUGACGAAGCUG
Summary of the method: as §1

[6] = tested on: biotinyl-Trp-oxazolone; test: self-aminoacylation, catalytic enhancement (BWO) (fold over background); higher = more active; k-Seq, kA / k0A0; sequences stand for … in GGGAAUGGAUCCACAUCUACGAAUUC…UUCACUGCAGACUUGACGAAGCUG
Summary of the method: as §1

Sequence | self-aminoacylation [1] | self-aminoacylation [2] | self-aminoacylation [3] | self-aminoacylation [4] | self-aminoacylation [5] | self-aminoacylation [6]
AUUCACCUAGGUGACCGGGUG [Fam2.2 aminoacylation ribozyme variant] | 5.29 | 4.19 | 3.84 | 4.8 | 23 | 6.82
AAUUUUUCUAAUAGUCGCAAG [Fam3.1 aminoacylation ribozyme variant] | 1.75 | 1.75 | 1.7 | 1.88 | 3.68 | 1.54
AUUCACCCACGUCAUCGGGUG [Fam2.2 aminoacylation ribozyme variant] | 6.88 | 3.23 | 3.91 | 2.76 | 37.1 | 3.99
AUUCACCUCGGUCGUCGGGUG [Fam2.2 aminoacylation ribozyme variant] | 2.85 | 3.12 | 2.41 | 2.42 | 11.4 | 2.53
CUACAUAAAACAAUCGGUCUG [Fam1A.1 aminoacylation ribozyme variant] | 0.738 | 0.799 | 0.934 | 0.808 | 0.674 | 0.539
AAAUUUGCUAAUAGUAGCAAG [Fam3.1 aminoacylation ribozyme variant] | 1.26 | 1.27 | 1.38 | 1.59 | 2.63 | 1.96
CCACACUUCAAUCAAUCGGUC [Fam1B.1 aminoacylation ribozyme variant] | 1.51 | 1.17 | 1.05 | 1.1 | 42.7 | 21.8
AUUCGCCUAGGUCAACGGGUG [Fam2.2 aminoacylation ribozyme variant] | 6.03 | 2.72 | 4.66 | 2.76 | 27.8 | 3.75
AUGACCGUGGUCAUCGAGUGA [Fam2.1 aminoacylation ribozyme variant] | 7.27 | 3.22 | 6.71 | 3.34 | 39.7 | 7.37
CUAUUUCAAAGAAUCGGUCUG [Fam1A.1 aminoacylation ribozyme variant] | 0.86 | 0.794 | 0.93 | 0.887 | 1.19 | 1.12
